According to publication PMC2943749:
Where “and” joins values, the source holds several entries; their conditions need not be identical. Equal entries are not always repeated.

Biological target: PtdIns5P 4-kinase IIβ, genomically tagged with a FLAG-(His6)2 tag (DT40 cell line JPR3) (chicken (endogenous in DT40))
Assay: affinity purification with mass spectrometry

PtdIns5P 4-kinase IIα, endogenous and untagged (in JPR3 DT40 cells) (from UniProt Q5F356 1-405) (enzyme)
ratio IIβ/IIα in the pull-down (peptide set 559/565): 1.39 and 1.37 and 1.75 | ratio IIβ/IIα in the pull-down (peptide set 829/828): 0.92 and 1.41 and 1.47
